The supplement of paper PMC9170038

System: MS2 coat protein
Assay: apparent KD of MS2 coat protein; designed switch direction (-1 OFF switch, 1 ON switch): -1; higher = weaker reporter binding
How it was run: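 The apparent KD reported per design is the median over clusters of curve fits to normalised cluster fluorescence. The RNA switches were transcribed on Illumina chips by stalled E. coli RNA polymerase. SNAP-549-labelled MS2 coat protein was titrated from 0.7 or 1.5 nM, doubling up to 3 µM, in Tris-HCl pH 7.5 buffer containing KCl, MgCl2, BSA, DTT, tRNA and Tween-20, with no input, 200 uM small-molecule ligand, or an oligonucleotide input.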

[1] = Eterna round: R95, input ligand: FMN 200 uM
[2] = Eterna round: R95, input ligand: microRNA oligo, concentration not stated
[3] = Eterna round: R95, input ligand: none
[4] = input ligand: microRNA oligo, concentration not stated

Sequence	apparent KD of MS2 coat protein (input ligand: FMN 200 uM)	apparent KD of MS2 coat protein (input ligand: none)	apparent KD of MS2 coat protein [1]	apparent KD of MS2 coat protein [2]	apparent KD of MS2 coat protein [3]	apparent KD of MS2 coat protein [4]
GAAUGAGAGCAGGAUAUCUUAUAAAUGUAUGAAAGAGAAGGGCUCACAUGAGGAUCACCCAUGUGGUCCUAGAC [jl-ex6-4.72 jandersonlee mod] (Eterna round: R97, puzzle: Exclusion 6)	0.309 µM	0.0401 µM	–	–	–	–
UGGUGUGCGAAGGAUAUGUAGGCUAUCAUGUCAAUAGAAGGUUGCACAUGAGGAUCACCCAUGUAAGCCACUUA [Eternabot (L1) Solution 17] (Eterna round: R97, puzzle: Exclusion 6)	0.0692 µM	0.083 µM	–	–	–	–
GGCCUCGCGGUCAGGAUAUAUUGCUGUAAUCAGUGGUAGAAGGGACAUGAGGAUCACCCAUGUACCUAGGACAU [BmEX4 C.20] (Eterna round: R97, puzzle: Brourd's mod of Exclusion 4)	0.0334 µM	0.0189 µM	–	–	–	–
UUUUUAUUUUUUUAUUUUGACAUGAGGAUCACCCAUGUCACGAGCAGAUCUUCAUGCAAGCUUUUUGCUCGUCUUAU [Sensor v3 - Turn-off variant 1 - 40] (puzzle: Sensor v3, turn-off variant 1)	–	–	0.0583 µM	0.141 µM	0.0984 µM	–
AGAGUGAGAGGAUAUUGGAUUCCUAACAUGAGGAUCACCCAUGUAGUACGGUGCUACUGACAAGAAGGCUCACUCU [etrenacac ex5r4 #7] (Eterna round: R97, puzzle: Exclusion 5)	0.0545 µM	0.0761 µM	–	–	–	–
UAUAUAUAGUAAGGAUAUGUAAUUACUUUAUAAACAGAAGGUACUGACAUGAGGAUCACCCAUGUUUUAGUGUGGGCAUGUAGA [JMF's solution 37] (Eterna round: R96, puzzle: Exclusion NG 1)	–	–	–	–	–	0.0701 µM
CUUUAGUGAGGAUAUCGGUAGUAAUACAAUAGUAUUACUACUGAGAAGGCACAUGAGGAUCACCCAUGUUCCUC [Mat - Exclusion 4 - Mod of Omei - D82] (Eterna round: R96, puzzle: Exclusion 4)	0.259 µM	0.0299 µM	–	–	–	0.0253 µM
UCGGGCUCAGAGGAUAUGGGCGAAAAUAUAAAACCAGAAGGCUGAACUUGAGGAUCACCCAAGUACGGGCAAAA [Inxeridi] (Eterna round: R97, puzzle: Exclusion 6)	0.143 µM	0.0679 µM	–	–	–	–
AUCGUGCAGCAAAGCUGUACGAGUACAUGAGGAUCACCCAUGUAGGAUAUGGUACGCAAAGCGUGCUAGAAGGAUAUGAGAUUU [Mat - Exclusion NG 3 - Mod of JL - D100] (Eterna round: R96, puzzle: Exclusion NG 3)	0.0554 µM	0.0452 µM	–	–	–	0.0278 µM
CCCGGGUUUGUAGGAUAUGCCCGCCUUUGGCGGGCAGAAGGACAUGAGGAUCACCCAUGUUGUAUAAACUUGGGAUGUUCCUCG [random4] (Eterna round: R96, puzzle: Exclusion NG 1)	0.0308 µM	0.0407 µM	–	–	–	0.0313 µM
CCCGUCGAUGUAGGAUAUGCCCGGGUCUCCCGGGCAGAAGGACAUGAGGAUCACCCAUGUUCGUGAGGAUCACCCAUGAAUGGG [Double but mutated MS2] (Eterna round: R96, puzzle: Exclusion NG 1)	0.015 µM	0.0194 µM	–	–	–	0.013 µM
UGUGCGUAUGUGAGGAUAUGCUGGUCCUUGGAUCGGCAGAAGGCACAUGAGGAUCACCCAUGUGGUGUCGUUCG [salish99_Bmod_ex4_097] (puzzle: Brourd's mod of Exclusion 4)	–	–	–	0.206 µM	–	–
UUUGUUUUGCAAGGAUAUGUUUAAUUUUAGUUUCCUUACACAUGAGGAUCACCCAUGUUAUACUUACAGAAGGUGCGUAAUUUU [Excl-NG2-LRO02] (Eterna round: R96, puzzle: Exclusion NG 2)	–	–	–	–	–	0.104 µM
AAAUAAUAGAUAAAAUAAAACAUGAGGAUCACCCAUGUGGGAUGUUGAGGGUGAUACAAGCUUUUUGCUCGUCUUAU (puzzle: Sensor v3, turn-off variant 1)	–	–	0.233 µM	0.0456 µM	0.271 µM	–
AAGGAACGAGGAUAUGCAGGUUGAGCUCGAGUUCGACCGGAACAUGAGGAUCACCCAUGUAGAAGGUGUAUCCC [Vedibe] (puzzle: Exclusion 2)	–	–	–	0.024 µM	–	–
AUAAGUAUAUAGGAUAUCUAGCUGGUAACAGCUAGAGAAGGAUGUACAUGAGGAUCACCCAUGUAAAUCGAUCA [Ex6/10-A2] (Eterna round: R97, puzzle: Exclusion 6)	0.0185 µM	0.0181 µM	–	–	–	–
UUUUACCGAGGAUAUACAUUUUUUUUAUUAUCCUCAUUAUUACAUGAGGAUCACCCAUGUAGAAGGCGGAUUUU [My Design] (puzzle: Exclusion 2)	–	–	–	0.0569 µM	–	–

Sequence	apparent KD of MS2 coat protein (input ligand: FMN 200 uM)	apparent KD of MS2 coat protein (input ligand: none)	apparent KD of MS2 coat protein [1]	apparent KD of MS2 coat protein [2]	apparent KD of MS2 coat protein [3]	apparent KD of MS2 coat protein [4]
AAGUACCGUCACGAUAGUGAUGGUACAACAAGCAGGUGAACAUGAGGAUCACCCAUGUCCUCAAUUGCUCGUCUUAU [Sensor 3 - 73] (puzzle: Sensor v3, turn-off variant 2)	–	–	0.156 µM	0.0483 µM	0.159 µM	–
GAUAAGGGAGGAUAUACGGAACGGUUUAUGCUCAGUGAGGCACAUGAGGAUCACCCAUGUAGAAGGCCCGACAG [Gezaerti] (puzzle: Exclusion 2)	–	–	–	0.0256 µM	–	–
UGUCAGAUGGUAGGAUAUCCAUAUCGAGUGACCCUUUCAUAACAUGAGGAUCACCCAUGUUGGUGGGAGAAGGGCCGUAUGGUG [salish99_ExNG02_R04_026] (Eterna round: R96, puzzle: Exclusion NG 2)	0.0132 µM	0.0155 µM	–	–	–	0.0127 µM
AGAAAGCAAGGAUAUACAAAGAAACGACCGAAAGAAAAGAAACAUGAGGAUCACCCAUGUAGAAGGUGCAAGAA [JR_Exclu2_Sub031] (puzzle: Exclusion 2)	–	–	0.019 µM	0.0128 µM	0.0177 µM	–
AGGAAGCAAGGAUAUACGAGGAGAAGGUGUCCAUCUAAAGGACAUGAGGAUCACCCAUGUAGAAGGUGCGAGAA [JR_Exclu2_Sub049] (puzzle: Exclusion 2)	–	–	0.0496 µM	0.21 µM	0.189 µM	–
GAAAAGGUAGGAUAUGCGAAAAAAAAGGGUAGAAAAAAAACACAUGAGGAUCACCCAUGUAGAAGGACCAAAAG [salish99_ex2_r3_031] (puzzle: Exclusion 2)	–	–	0.0261 µM	0.0312 µM	0.032 µM	–
CAUGUCCAACGAGGAUAUGGGAAAGGAAGUGUACCAGAAGGCGUACGGACAUGAGGAUCACCCAUGUCGCGCGGCGCGAUGUGG [PowerStrip EXNG 1.1] (Eterna round: R96, puzzle: Exclusion NG 1)	0.0476 µM	0.0415 µM	–	–	–	0.0283 µM
UUUAGUUUAGGAUAUGUAGAUUUUAACAUGAGGAUCACCCAUGUAGAUCCUGAAUUAACUACAGAAGGGAACAUUU [Mod of Brourd 14 - Jieux - Exclusion 5] (Eterna round: R97, puzzle: Exclusion 5)	0.124 µM	0.154 µM	–	–	–	–
AGGUAGUCAGGAUAUUAGGAGUAGCGGGAUAACGCUACGAGUGAGAAGGGACAUGAGGAUCACCCAUGUUUAUU [JR_Ex4_Sub069] (Eterna round: R97, puzzle: Exclusion 4)	0.0703 µM	0.0268 µM	–	–	–	–
UACUUCUGAGGAUAUACAUAGAUUUACAUGAGGAUCACCCAUGUUCCUCUAUGUAUAAAUGUAGAAGGCAGAAGAU [Mat - Exclusion 5 - JL Mod - D61] (Eterna round: R97, puzzle: Exclusion 5)	0.0878 µM	0.0167 µM	–	–	–	–
ACAUGAGGAUCACCCAUGUCCGGCUGGUCCGUCUCGGCUGUCGAGGAUAUAGCACGGUAUCCGCGCUAGAAGGCGGGAGCCGGA [Aenatbe mod 85] (Eterna round: R96, puzzle: Exclusion NG 3)	0.0724 µM	0.0396 µM	–	–	–	0.026 µM
GGAUGUCUAAAGGAUAUGCUGGAUUAAUAUCUGGCAGAAGGUUGGACAUGAGGAUCACCCAUGUAAAUUCUGCC [Omei Ex6 A11] (Eterna round: R97, puzzle: Exclusion 6)	0.0246 µM	0.0173 µM	–	–	–	–
GGCAGUCGAGGAUAUACAAUCGUGCUUCGGCACGUAAGAUCACAUGAGGAUCACCCAUGUAGAAGGCGACUGCC [E2/1-A1] (Eterna round: R97, puzzle: Exclusion 2)	0.749 µM	0.0532 µM	–	–	–	–
ACAAGCUUUUUGCAUCAAGCAUUAAAGUCUGUGAUCGUAACAUGAGGAUCACCCAUGUAAGUUUUAUGACGUCUUAU [JR_SV3TOV2_Sub096] (puzzle: Sensor v3, turn-off variant 2)	–	–	0.0248 µM	0.0398 µM	0.0253 µM	–
AAAGUUGCCUACGGUGUGCACAUGAGGAUCACCCAUGUACCUCCAUGGCAGUGCCAAUAAUUAUGCUCGUCACUACA [Eternabot (L1) Solution 18] (Eterna round: R97, puzzle: Sensor, turn-off variant 1)	0.0149 µM	0.0142 µM	–	–	–	–
CUCAUGCCUGAGGAUAUGCUGUACAAAAGUACUGCAGAAGGCAGGACAUGAGGAUCACCCAUGUGGCGAAAGCC [Omei Ex G10] (Eterna round: R97, puzzle: Exclusion 6)	0.0134 µM	0.198 µM	–	–	–	–
GUACUGACAGGAUAUACAUGAGGAUCACCCAUGUGCCCUUAUAGAUGCAAAGCAUCUAGUAGAAGGGUCUGUAC [Omei Ex3 Model Bachelor's Dilema v24] (Eterna round: R97, puzzle: Exclusion 3)	0.0328 µM	0.0269 µM	–	–	–	–
